Reference: paper PMC9646512, “Directed evolution and selection of biostable l-DNA aptamers with a mirror-image DNA polymerase”

Molecular target: native human alpha-thrombin (Homo sapiens, UniProt P00734;P00734 328-363;364-622)
Test: ITC; ITC: 20 mM HEPES-NaOH, 150 mM NaCl, 5 mM KCl, 2 mM MgCl2, 1 mM CaCl2, pH 7.4, 25 C; EMSA: same plus 0.05% Tween 20 and 10% glycerol, room temperature 30 min, ge

Row | Binder | Kd | binding result
1 | D-6 aptamer (structured_DNA) DNA: CGGATCCAGTTACGGAACTGAACAGAAGGGTGGTGTGGTTGGACTGTTCATTCAGTAAGCTTCGG | 27 nM | 
2 | ACGGAACGCGTTTCAAGACTACCGTGTTTGTTCCGT (structured_DNA, natural D-DNA) [D-L-9-1t] |  | no binding
3 | GATGAACTTGTTGAAACCCAACGGGAGAATCGTTCATT (structured_DNA, natural D-DNA) [D-L-9-2t] |  | no binding
